Reference: patent US20200317768A1 (published 2020)
Substitutions are numbered along the chain they refer to.

Columns and labels:
[1] = molecular target: T1, cynomolgus monkey FcγRIIIaS extracellular domain, His-tagged (cynomolgus monkey, UniProt Q8SPW2 21-206 at identity 1.00)); assay: SPR (BIACORE); KD of SG1 divided by KD of variant;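 note: relative to parent M103205H795-SG1 carrying the SG1 human heavy chain constant region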
T1 construct: also called cyno FcγRIIIaS; cynoFcγRIIIaS; not shown: C-terminal His-tag
T1 chain: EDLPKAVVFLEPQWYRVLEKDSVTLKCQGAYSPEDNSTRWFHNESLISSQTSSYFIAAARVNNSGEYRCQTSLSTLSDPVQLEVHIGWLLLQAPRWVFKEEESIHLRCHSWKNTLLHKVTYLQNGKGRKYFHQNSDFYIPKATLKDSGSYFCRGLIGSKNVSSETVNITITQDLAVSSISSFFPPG
Experimental: (§1) The kinetic analysis of interactions between these antibodies and FcγR was carried out using BIACORE® T200 or BIACORE® 4000 (GE Healthcare). HBS-EP+ (GE Healthcare) was used as the running buffer, and the measurement temperature was set to 25° C. A chip produced by immobilizing Protein A. Protein A/G or mouse anti-human IgG kappa light chain (BD Biosciences) onto a Series S Sensor Chip CM4 or CM5 (GE Healthcare) by the amine-coupling method was used. […] After the measurement, the antibody captured on the chip was washed off by allowing reaction with 10 mM glycine-HCl, pH1.5 and 25 mM NaOH so that the chip was regenerated and used repeatedly. The sensorgrams obtained as measurement results were analyzed by the 1:1 Langmuir binding model using the BIACORE® Evaluation Software to calculate the binding rate constant ka (L/mol/s) and dissociation rate constant kd (l/s), and the dissociation constant KD (mol/L) was calculated from these values. […] Regarding such interactions, KD values were calculated using the following 1:1 binding model described in BIACORE® T100 Software Handbook BR1006-48 Edition AE.

[2] = molecular target: T2, cynomolgus monkey FcγRIIb extracellular domain, His-tagged (cynomolgus monkey); assay: SPR (BIACORE); KD of SG1 divided by KD of variant;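 note: relative to parent M103205H795-SG1 carrying the SG1 human heavy chain constant region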
T2 construct: also called cyno FcγRIIb; cynoFcγRIIb; not shown: C-terminal His-tag
T2 chain: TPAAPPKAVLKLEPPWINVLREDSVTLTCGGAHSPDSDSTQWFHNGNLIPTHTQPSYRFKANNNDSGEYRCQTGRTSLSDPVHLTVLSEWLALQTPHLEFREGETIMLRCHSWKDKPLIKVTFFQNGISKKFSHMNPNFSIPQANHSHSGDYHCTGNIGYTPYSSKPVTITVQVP
Experimental: as §1

[3] = molecular target: T3, cynomolgus monkey FcγRIIa3 extracellular domain, His-tagged (cynomolgus monkey); assay: SPR (BIACORE); KD of SG1 divided by KD of variant;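 note: relative to parent M103205H795-SG1 carrying the SG1 human heavy chain constant region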
T3 construct: also called cyno FcγRIIa3; cynoFcgRIIa3; not shown: C-terminal His-tag
T3 chain: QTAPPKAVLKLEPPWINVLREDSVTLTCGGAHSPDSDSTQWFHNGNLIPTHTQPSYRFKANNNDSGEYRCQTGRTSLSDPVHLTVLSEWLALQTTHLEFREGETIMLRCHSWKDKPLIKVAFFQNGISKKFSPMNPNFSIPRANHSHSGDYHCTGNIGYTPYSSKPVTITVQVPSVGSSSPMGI
Experimental: as §1

[4] = molecular target: T4, cynomolgus monkey FcγRIIa2 extracellular domain, His-tagged (cynomolgus monkey); assay: SPR (BIACORE); KD of SG1 divided by KD of variant;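 note: relative to parent M103205H795-SG1 carrying the SG1 human heavy chain constant region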
T4 construct: also called cyno FcγRIIa2; cynoFcgRIIa2; not shown: C-terminal His-tag
T4 chain: T3 chain with I127K, K130N, P133H, R142Q
Experimental: as §1

[5] = molecular target: T5, human FcγRIIb extracellular domain, His-tagged (human, UniProt P31994 43-217); assay: SPR (BIACORE); KD of SG1 divided by KD of variant
T5 construct: also called FcgRIIb (human); not shown: C-terminal His-tag
T5 sequence: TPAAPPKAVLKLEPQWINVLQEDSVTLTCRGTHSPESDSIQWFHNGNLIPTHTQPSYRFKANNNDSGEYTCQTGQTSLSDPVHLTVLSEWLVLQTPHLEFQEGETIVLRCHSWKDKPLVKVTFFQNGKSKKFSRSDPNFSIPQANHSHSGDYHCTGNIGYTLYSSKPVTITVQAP
Experimental: as §1

[6] = molecular target: T6, human FcγRIIaR extracellular domain, His-tagged (human, UniProt P12318 34-217); assay: SPR (BIACORE); KD of SG1 divided by KD of variant
T6 construct: also called human FcγRIIa (type R); FcgRIIaR; not shown: C-terminal His-tag
T6 chain: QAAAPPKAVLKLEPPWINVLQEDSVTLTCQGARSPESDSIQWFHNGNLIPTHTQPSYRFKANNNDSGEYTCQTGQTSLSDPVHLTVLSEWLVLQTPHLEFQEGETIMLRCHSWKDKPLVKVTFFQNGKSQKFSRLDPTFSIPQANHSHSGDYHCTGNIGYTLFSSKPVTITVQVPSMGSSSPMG
Experimental: as §1

[7] = molecular target: T7, human FcγRIIaH extracellular domain, His-tagged (human, UniProt P12318 34-217); assay: SPR (BIACORE); KD of SG1 divided by KD of variant
T7 construct: also called human FcγRIIa (type H); FcgRIIaH; not shown: C-terminal His-tag
T7 sequence: T6 chain with R134H
Experimental: as §1

[8] = molecular target: T8, cynomolgus monkey FcγRIIa1 extracellular domain, His-tagged (cynomolgus monkey); assay: SPR (BIACORE); KD of SG1 divided by KD of variant
T8 construct: also called cyno FcγRIIa1; cynoFcgRIIa1; not shown: C-terminal His-tag
T8 chain: T3 chain with T95P, A121T, S128A, P133H, N135D
Experimental: as §1

[9] = molecular target: T1, cynomolgus monkey FcγRIIIaS …; assay: SPR (BIACORE), captured antibody, FcgR as analyte

B1: M103205H795-MY443/M103202L889-SK1 (antibody, human IgG1, kappa)
heavy: QVTLKESGPVLVKPTETLTLTCTVSGIDLSHDDISWVRQAPGKGLEWVGIISYAGSTYYASWAKGRLTISKDTSKNQVVLTMTNMDPVDTATYYCARGVPAYSHGGDLWGQGTLVTVSSASTKGPSVFPLAPSSKSTSGGTAALGCLVKDYFPEPVTVSWNSGALTSGVHTFPAVLQSSGLYSLSSVVTVPSSSLGTQTYICNVNHKPSNTKVDKKVEPKSCDKTHTCPPCPAEELLTGPSVFLFPPKPKDTLMISRTPEVTCVVVDVSDEDPEVKFNWYVDGVEVHNAKTKPREEQYNSTYRVVSVLTVLHQDWLNGKEYKCKVSNKALPKPIEKTISKAKGQPREPQVYTLPPSREEMTKNQVSLTCLVKGFYPSDIAVEWESNGQPENNYKTTPPVLDSDGSFFLYSKLTVDKSRWQQGNVFSCSVMHEALHNHYTQKSLSLSP
light: DIVMTQSPATLSLSPGERATLSCTSSQSVYHANWLSWFQQKPGQPPKLLIYWASTLAYGVPSRFSGSGSGTDFTLTISSLQPEDAATYYCAGGYGGGRYAFGQGTKVEIKRTVAAPSVFIFPPSDEQLKSGTASVVCLLNNFYPREAKVQWKVDNALQSGNSQESVTEQDSKDSTYSLSSTLTLSKADYEKHKVYACEVTHQGLSSPVTKSFNRGEC
notes: copies: 2 + 2
KD fold (SG1 = 1) [1]: 0.1 fold
KD fold (SG1 = 1) [2]: 1.5 fold
KD fold (SG1 = 1) [3]: 1.9 fold
KD fold (SG1 = 1) [4]: 1 fold
KD fold (SG1 = 1) [5]: 1.6 fold
KD fold (SG1 = 1) [6]: 1.7 fold
KD fold (SG1 = 1) [7]: 1.3 fold
KD fold (SG1 = 1) [8]: 0.7 fold
Kd [9]: 2600 nM

B2: M103205H795-MY444/M103202L889-SK1 (antibody, human IgG1, kappa)
heavy: B1 heavy with E234F
light: B1 light
notes: copies: 2 + 2
KD fold (SG1 = 1) [1]: 0.2 fold
KD fold (SG1 = 1) [2]: 6 fold
KD fold (SG1 = 1) [3]: 6.9 fold
KD fold (SG1 = 1) [4]: 4.6 fold
KD fold (SG1 = 1) [5]: 6.2 fold
KD fold (SG1 = 1) [6]: 7.9 fold
KD fold (SG1 = 1) [7]: 6.3 fold
KD fold (SG1 = 1) [8]: 2.7 fold
Kd [9]: 1600 nM

B3: M103205H795-MY445/M103202L889-SK1 (antibody, human IgG1, kappa)
heavy: B1 heavy with E234G
light: B1 light
notes: copies: 2 + 2
KD fold (SG1 = 1) [1]: 0.1 fold
KD fold (SG1 = 1) [2]: 1.9 fold
KD fold (SG1 = 1) [3]: 1.2 fold
KD fold (SG1 = 1) [4]: 0.9 fold
KD fold (SG1 = 1) [5]: 1.1 fold
KD fold (SG1 = 1) [6]: 1 fold
KD fold (SG1 = 1) [7]: 1.2 fold
KD fold (SG1 = 1) [8]: 0.6 fold
Kd [9]: 3500 nM

B4: M103205H795-MY446/M103202L889-SK1 (antibody, human IgG1, kappa)
heavy: B1 heavy with E234H
light: B1 light
notes: copies: 2 + 2
KD fold (SG1 = 1) [1]: 0.1 fold
KD fold (SG1 = 1) [2]: 2.6 fold
KD fold (SG1 = 1) [3]: 3.6 fold
KD fold (SG1 = 1) [4]: 2.3 fold
KD fold (SG1 = 1) [5]: 1.9 fold
KD fold (SG1 = 1) [6]: 2.3 fold
KD fold (SG1 = 1) [7]: 2.7 fold
KD fold (SG1 = 1) [8]: 1.3 fold
Kd [9]: 2900 nM

B5: M103205H795-MY447/M103202L889-SK1 (antibody, human IgG1, kappa)
heavy: B1 heavy with E234I
light: B1 light
notes: copies: 2 + 2
KD fold (SG1 = 1) [1]: 0.5 fold
KD fold (SG1 = 1) [2]: 7.8 fold
KD fold (SG1 = 1) [3]: 11.3 fold
KD fold (SG1 = 1) [4]: 5.3 fold
KD fold (SG1 = 1) [5]: 10.5 fold
KD fold (SG1 = 1) [6]: 11.2 fold
KD fold (SG1 = 1) [7]: 7.1 fold
KD fold (SG1 = 1) [8]: 3.2 fold
Kd [9]: 1100 nM

B6: M103205H795-MY448/M103202L889-SK1 (antibody, human IgG1, kappa)
heavy: B1 heavy with E234K
light: B1 light
notes: copies: 2 + 2
KD fold (SG1 = 1) [1]: 0.1 fold
KD fold (SG1 = 1) [2]: 0.6 fold
KD fold (SG1 = 1) [3]: 0.8 fold
KD fold (SG1 = 1) [4]: 0.7 fold
KD fold (SG1 = 1) [5]: 0.5 fold
KD fold (SG1 = 1) [6]: 0.5 fold
KD fold (SG1 = 1) [7]: 0.7 fold
KD fold (SG1 = 1) [8]: 0.3 fold
Kd [9]: 6500 nM

B7: M103205H795-MY459/M103202L889-SK1 (antibody, human IgG1, kappa)
heavy: B1 heavy with A233D, E234P
light: B1 light
notes: copies: 2 + 2
KD fold (SG1 = 1) [1]: 0.1 fold
KD fold (SG1 = 1) [2]: 1.6 fold
KD fold (SG1 = 1) [3]: 2.3 fold
KD fold (SG1 = 1) [4]: 1.1 fold
KD fold (SG1 = 1) [5]: 1.8 fold
KD fold (SG1 = 1) [6]: 2 fold
KD fold (SG1 = 1) [7]: 1.8 fold
KD fold (SG1 = 1) [8]: 0.6 fold
Kd [9]: 3200 nM

B8: M103205H795-MY460/M103202L889-SK1 (antibody, human IgG1, kappa)
heavy: B1 heavy with A233E, E234P
light: B1 light
notes: copies: 2 + 2
KD fold (SG1 = 1) [1]: 0.1 fold
KD fold (SG1 = 1) [2]: 2.3 fold
KD fold (SG1 = 1) [3]: 3.1 fold
KD fold (SG1 = 1) [4]: 1.6 fold
KD fold (SG1 = 1) [5]: 1.9 fold
KD fold (SG1 = 1) [6]: 2 fold
KD fold (SG1 = 1) [7]: 2.7 fold
KD fold (SG1 = 1) [8]: 1 fold
Kd [9]: 2700 nM

B9: M103205H795-MY461/M103202L889-SK1 (antibody, human IgG1, kappa)
heavy: B1 heavy with A233F, E234P
light: B1 light
notes: copies: 2 + 2
KD fold (SG1 = 1) [1]: 0.2 fold
KD fold (SG1 = 1) [2]: 3.8 fold
KD fold (SG1 = 1) [3]: 4.9 fold
KD fold (SG1 = 1) [4]: 2.5 fold
KD fold (SG1 = 1) [5]: 2.7 fold
KD fold (SG1 = 1) [6]: 3.2 fold
KD fold (SG1 = 1) [7]: 3.8 fold
KD fold (SG1 = 1) [8]: 1.8 fold
Kd [9]: 2100 nM

B10: M103205H795-MY462/M103202L889-SK1 (antibody, human IgG1, kappa)
heavy: B1 heavy with A233G, E234P
light: B1 light
notes: copies: 2 + 2
KD fold (SG1 = 1) [1]: 0.2 fold
KD fold (SG1 = 1) [2]: 3.8 fold
KD fold (SG1 = 1) [3]: 4 fold
KD fold (SG1 = 1) [4]: 3.2 fold
KD fold (SG1 = 1) [5]: 2.4 fold
KD fold (SG1 = 1) [6]: 2.2 fold
KD fold (SG1 = 1) [7]: 2.9 fold
KD fold (SG1 = 1) [8]: 1.7 fold
Kd [9]: 1800 nM
